± gives the standard deviation of the averaged measurements.
Tests used:
[1] = melting temperature (DSF); higher = more thermostable
Summary of the method: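 On a Bio-Rad CFX96, fluorescence of 45 μL enzyme (0 to 0.3 mg/mL) mixed with 5 μL 5X Sypro Orange in sealed PCR plates was followed from 25 °C through 250 cycles of 0.3 °C, with a 0.3 °C/s ramp. The enzymes had been expressed in E. coli C41(DE3), taken up on nickel beads and released by SUMO protease. Melting temperature, measured by differential scanning fluorimetry, is the value given.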

[2] = purified protein yield per well (BCA); higher = higher soluble expression
Summary of the method: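 Candidate enzymes were expressed in E. coli C41(DE3) in 2 mL autoinduction cultures with 100 µg/mL kanamycin, at 37 °C for 2 h and then 18 °C for 40 h. Cells were lysed, and protein was bound to Ni-charged magnetic beads and released by SUMO protease cleavage on an OT-2 robot. The read-out is purified protein yield per well, measured with the Pierce Rapid Gold BCA kit. Values below 25 ug (0.1 mg/mL) are below the detection threshold.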

[3] = PET hydrolysis, aromatic products released after 48 h (umol product/mg enzyme); higher = more PET depolymerization activity
Summary of the method: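 Tagless, SUMO-cleaved candidate enzymes were purified on nickel beads, and 5 μg (50 μL) was added to 3.5 mg amorphous PET film or crystalline PET powder in 450 μL buffer. Buffers were 50 mM NaCitrate (pH 4.5, 5.5), 50 mM NaPhosphate (pH 6.5, 7.5) or glycine (pH 8.5). Sealed plates were incubated 48 h at 40 or 60 °C without shaking. PET hydrolysis activity is the aromatic product in the supernatant, read by absorbance at 260 and 280 nm against buffer blanks and expressed per mg enzyme.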

[4] = substrate: aFilm, 40 °C, pH 4.5
[5] = substrate: aFilm, 40 °C, pH 5.5
[6] = substrate: aFilm, 40 °C, pH 6.5
[7] = substrate: aFilm, 40 °C, pH 7.5
[8] = substrate: aFilm, 60 °C, pH 4.5
[9] = substrate: aFilm, 60 °C, pH 5.5
[10] = substrate: aFilm, 60 °C, pH 6.5
[11] = substrate: aFilm, 60 °C, pH 7.5
[12] = substrate: cryPow, 40 °C, pH 4.5
[13] = substrate: cryPow, 40 °C, pH 5.5
[14] = substrate: cryPow, 40 °C, pH 6.5
[15] = substrate: cryPow, 40 °C, pH 7.5
[16] = substrate: cryPow, 60 °C, pH 4.5
[17] = substrate: cryPow, 60 °C, pH 5.5
[18] = substrate: cryPow, 60 °C, pH 6.5
[19] = substrate: cryPow, 60 °C, pH 7.5

Row | Sequence | melting temperature [1] [C] | purified protein yield per well [2] [µg] | PET hydrolysis [3, 4] | PET hydrolysis [3, 5] | PET hydrolysis [3, 6] | PET hydrolysis [3, 7] | PET hydrolysis [3, 8] | PET hydrolysis [3, 9] | PET hydrolysis [3, 10] | PET hydrolysis [3, 11] | PET hydrolysis [3, 12] | PET hydrolysis [3, 13] | PET hydrolysis [3, 14] | PET hydrolysis [3, 15] | PET hydrolysis [3, 16] | PET hydrolysis [3, 17] | PET hydrolysis [3, 18] | PET hydrolysis [3, 19]
1 | ADNPYQRGPDPTPASIAADHGPFATAQTTIPKGNGLGGGIVYYPTDTSQGTFGAIAIAPGYGTEWRWYGWLGPRLASFGFVVVGIETNSLSDYADARADQLLAALDWLVTSSPVRDRVDRTRLAVGGHSMGGGGALVAATRRPSLRSAVGMAPYVPDGILRGTSVPTILFGGQADTTVTPAYLASAYATIPATVPRAYPEIAGEGHGFAAGGGGGNSGAFARVMMVWLKVFVDADTRYPPFLCPTLSNTSGISKYQASCPLGPGGTIPPPDTSRLANANAGRCLDASGAGTANGTKVILWTCNHGANQQWNRT [ESM139] | 65.5 | 305 | < 3 | < 3 | < 3 | < 3 | < 3 | < 3 | < 3 | < 3 | < 3 | < 3 | 1.5 ± 2.1 | 3.5 ± 0.71 | < 3 | < 3 | < 3 | < 3
2 | ADNPYQRGPDPTPASVGASRGTFATAQVSVPAGNGFGGGVIYYPTDTSQGRFGAVAVVPGYTATWAAEGAWMGPWLASFGFVVIGIDTNSRNDWDTARGTQLLAALDYLTQRSSVRDRVDASRAAVMGHSMGGGGAIYAALQRPSLKTTVGLAPFSASQTLNNMRVPTMLLAGQNDGTTTPASIRNYYGQVPSGVEKAYLELTGAGHGFPTSNNPTMMRNVIPWLKIFVDSDTRYTQFLCPLSNTNGIRSYESTCPLVPSPVPTDPPTSAPPTSTPPTTPPPTTPPPTTPAPGGPCAASYRTVNSWSGGFQGEVTVRAGGAPINGWTVRWTLGGGQSISQVWNGTLSTSGSTATVRNAPYNGSLPASGSTTFGFIANGSPSAPTLTCASP [TEP013] | 64 | 176 | < 3 | < 3 | < 3 | < 3 | < 3 | < 3 | < 3 | < 3 | < 3 | 5.5 ± 0.71 | 27 ± 1.4 | 53.5 ± 2.1 | < 3 | < 3 | 6 ± 1.4 | 10 ± 1.4
3 | ADNPYQRGPDPTPASVSANRGTFATAQISVPAGNGFGGGVIYHPTDTSQGTFGAIAVVPGYTATWAAEGAWMGHWLASFGFVVIGIDTNSRNDWDTARGTQLLAALDYLTQRSPVRDRVDANRTAVMGHSMGGGGAMHAALQRPSLKAAIGLAPFSPSQNLTTTRVPTMLLAGQSDTTTTPASILNLYNGIPAATEKAYLELTGAGHGFPTSNNPTMMRNVIPWLKIFVDSDTRYTQFLCSLSNWDGIRAYQSTCPLVPSPVPTTTSTTSTTTTISTTTTTPAPGDACSATYRTTNSWPGGYQAEVTVTAGNTAVNGWNVQWTLGSGQTVTQVWNGTLNVSGSTASVRNASYNGSLQANTSTTFGFIGGGTPPTSSLSCTSP [ESM035] | 57.4 | 510 | < 3 | < 3 | < 3 | < 3 | < 3 | < 3 | < 3 | < 3 | < 3 | < 3 | 7 ± 2.8 | 23.5 ± 0.71 | < 3 | < 3 | < 3 | < 3
4 | ADNPYQRGPDPTPQSISAPTGPFATASVTVPRQGNFGGGVIYYPTDTSQGTFGAVAISPGLNGTWPGIAWLGPRLSSQGFVVFGIDTLGLSDSTASRGSQLLAALDYLTQTSSVRTRVDSSRLAVAGHSMGGGGAFEAALRRPALKAAIPNAPFFPGSASNVRVPTLITAMQNDSLVGQNRNAYNGIPAGVEKAYVELAGAGHNQIGQPTTAIARNWIPWLKIFVDSDARYHQFLCPTTDMSGLSQYLNTCPLISTTPPTSSPSAQPTTPGPTGPPPGGACAATYRTVNSWSDGYQGEMTVQAGSSAINGWTVRWTMSGGQTISQVWNGTLVAGSGAAAVRNVAYNGSLAAGASTTFGFISSGTPSATSITCGSP [ESM081] | 68.2 | 182 |  |  |  |  |  |  |  |  | 4 | 17 | 45 | 82 |  |  |  | 
5 | ADNPYQRGPDPTPQSISATTGPFATASVTVPRQGNFGGGVIYYPTDTSQGTFGAVAISPGLNGTWPGIAWLGPRLSSQGFVVFGIDTLGLNDSTASRGSQLLAALDYLTQTSSVRTRVDASRLAVAGHSMGGGGAFEAVLRRPTLKASIPNAPFFPGSAANVRVPTLITAMQNDSLVGQNRNAYNGIPAGVEKAYIELAGAGHNQIGQPTTAIARNWIPWLKIFVDNDARYHQFFCPTTNMSGLSQYLNTCPLTSATPPTSSPSAGPTTPGPTGPPPGGACAATYQTVNTWSGGYQGEMTVRAGNSAINGWTVRWTMGGGQISQVWNGTLVTGSGAAAVRNAPYNGALAAGATTTFGFISSGTPSATSLTCATP [ESM064] | 63.1 | 164 |  |  |  |  |  |  |  |  | < 3 | 11 | 10 | 74 |  |  |  | 

Source: the supplement of paper PMC12455559
